# How the values were obtained:
# Assay in all cases: holdup assay
# Parameters in all cases: key: below the threshold = too weak to quantify, mostly under pKd 3.1 to 4
# [1] = target: T1, LNX2_3, Q8N448
# T1 sequence (Q8N448 463-564, limits assumed, looked up): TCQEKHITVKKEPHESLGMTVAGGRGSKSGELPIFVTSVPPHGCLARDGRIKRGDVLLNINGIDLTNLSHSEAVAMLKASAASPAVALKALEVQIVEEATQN
# [2] = target: T2, DFNB31_1, Q9P202
# T2 sequence (Q9P202 135-233, limits assumed, looked up): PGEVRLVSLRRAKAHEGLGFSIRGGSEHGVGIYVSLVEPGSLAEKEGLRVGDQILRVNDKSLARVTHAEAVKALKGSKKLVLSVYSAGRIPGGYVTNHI
# [3] = target: LNX1_2, Q8TBB1
# Chain of LNX1_2, Q8TBB1 (Q8TBB1 371-470): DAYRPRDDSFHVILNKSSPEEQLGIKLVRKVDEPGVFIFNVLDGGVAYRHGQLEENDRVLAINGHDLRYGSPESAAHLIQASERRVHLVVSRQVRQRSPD
# [4] = target: NHERF4_4, Q86UT5
# Chain of NHERF4_4, Q86UT5 (Q86UT5 464-550): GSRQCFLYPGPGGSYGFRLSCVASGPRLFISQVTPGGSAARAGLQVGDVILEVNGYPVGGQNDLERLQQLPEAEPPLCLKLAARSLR
# [5] = target: T3, GRIP1_3, Q9Y3R0
# T3 sequence (Q9Y3R0 247-346, limits assumed, looked up): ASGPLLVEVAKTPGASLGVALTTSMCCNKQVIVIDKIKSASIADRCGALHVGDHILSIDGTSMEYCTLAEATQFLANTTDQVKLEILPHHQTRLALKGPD
# [6] = target: MAGI2_2, Q86UL8
# Chain of MAGI2_2, Q86UL8 (Q86UL8 410-522): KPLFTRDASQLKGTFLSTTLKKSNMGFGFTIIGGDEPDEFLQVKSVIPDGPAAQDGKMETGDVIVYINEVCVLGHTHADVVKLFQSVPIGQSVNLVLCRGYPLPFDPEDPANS
# [7] = target: FRMPD2_2, Q68DX3
# Chain of FRMPD2_2, Q68DX3 (Q68DX3 944-1038): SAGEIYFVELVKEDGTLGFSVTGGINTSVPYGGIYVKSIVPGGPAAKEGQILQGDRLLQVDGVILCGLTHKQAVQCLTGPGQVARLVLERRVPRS
# [8] = target: T4, NHERF3_3, Q5T2W1
# T4 sequence (Q5T2W1 238-333, limits assumed, looked up): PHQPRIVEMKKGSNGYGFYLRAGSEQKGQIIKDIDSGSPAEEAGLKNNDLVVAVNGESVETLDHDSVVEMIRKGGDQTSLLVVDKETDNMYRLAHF
# [9] = target: PDLIM1, O00151
# Chain of PDLIM1, O00151 (O00151 1-87): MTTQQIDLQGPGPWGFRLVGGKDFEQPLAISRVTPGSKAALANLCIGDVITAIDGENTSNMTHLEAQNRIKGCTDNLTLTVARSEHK
# [10] = target: T5, APBA2_2, Q99767
# T5 sequence (Q99767 654-744, limits assumed, looked up): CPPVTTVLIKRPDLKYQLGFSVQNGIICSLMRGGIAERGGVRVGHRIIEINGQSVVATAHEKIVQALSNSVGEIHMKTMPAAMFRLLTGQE
# [11] = target: MAGI1_1, Q96QZ7
# Chain of MAGI1_1, Q96QZ7 (Q96QZ7 1-106): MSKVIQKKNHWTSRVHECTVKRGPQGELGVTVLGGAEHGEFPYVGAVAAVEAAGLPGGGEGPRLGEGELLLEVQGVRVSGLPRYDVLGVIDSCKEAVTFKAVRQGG
# [12] = target: GRID2IP_1, A4D2P6
# Chain of GRID2IP_1, A4D2P6 (A4D2P6 1-87): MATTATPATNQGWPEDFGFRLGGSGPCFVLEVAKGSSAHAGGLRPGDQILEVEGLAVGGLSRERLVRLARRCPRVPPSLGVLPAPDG
# [13] = target: Inadl_6, Q8NI35
# Chain of Inadl_6, Q8NI35 (Q8NI35 1058-1167): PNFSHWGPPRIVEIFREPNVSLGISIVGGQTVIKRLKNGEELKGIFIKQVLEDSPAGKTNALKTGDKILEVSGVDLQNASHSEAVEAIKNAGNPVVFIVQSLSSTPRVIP
# [14] = target: T6, CARD11, Q9BXL7
# T6 sequence (Q9BXL7 662-765, limits assumed, looked up): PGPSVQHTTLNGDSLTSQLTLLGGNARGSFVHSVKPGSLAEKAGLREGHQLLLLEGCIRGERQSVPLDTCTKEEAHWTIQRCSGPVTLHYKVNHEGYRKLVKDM
# [15] = target: T7, MPDZ_12, O75970
# T7 sequence (O75970 1857-1958, limits assumed, looked up): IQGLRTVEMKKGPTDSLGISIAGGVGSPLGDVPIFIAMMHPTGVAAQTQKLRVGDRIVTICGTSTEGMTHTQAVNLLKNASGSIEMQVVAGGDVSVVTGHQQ
# [16] = target: T8, GRIP1_7, Q9Y3R0
# T8 sequence (Q9Y3R0 999-1096, limits assumed, looked up): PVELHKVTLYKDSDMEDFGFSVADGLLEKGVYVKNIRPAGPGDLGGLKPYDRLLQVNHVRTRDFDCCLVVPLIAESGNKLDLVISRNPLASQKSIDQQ
# [17] = target: LIMK2, P53671
# Chain of LIMK2, P53671 (P53671 143-248): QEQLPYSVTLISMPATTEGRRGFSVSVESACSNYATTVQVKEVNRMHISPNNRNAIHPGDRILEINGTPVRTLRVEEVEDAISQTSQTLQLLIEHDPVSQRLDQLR
# [18] = target: T9, GRIP1_2, Q9Y3R0
# T9 sequence (Q9Y3R0 145-248, limits assumed, looked up): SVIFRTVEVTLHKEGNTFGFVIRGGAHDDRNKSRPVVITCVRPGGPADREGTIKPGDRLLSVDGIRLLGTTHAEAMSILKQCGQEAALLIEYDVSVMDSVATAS
# [19] = target: T10, SIPA1L2, Q9P2F8
# T10 sequence (Q9P2F8 945-1036, limits assumed, looked up): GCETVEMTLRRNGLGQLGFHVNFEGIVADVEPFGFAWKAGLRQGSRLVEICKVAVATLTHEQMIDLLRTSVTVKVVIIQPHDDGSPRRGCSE
# [20] = target: T11, RADIL, Q96JH8
# T11 sequence (Q96JH8 971-1071, limits assumed, looked up): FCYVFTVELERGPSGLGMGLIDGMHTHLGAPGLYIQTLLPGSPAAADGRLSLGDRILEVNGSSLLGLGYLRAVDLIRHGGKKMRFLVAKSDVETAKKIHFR
# [21] = target: GRID2IP_2, A4D2P6
# Chain of GRID2IP_2, A4D2P6 (A4D2P6 272-370): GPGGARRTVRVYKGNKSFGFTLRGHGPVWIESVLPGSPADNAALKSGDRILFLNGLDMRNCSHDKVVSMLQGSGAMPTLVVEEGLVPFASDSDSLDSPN
# [22] = target: GRIP2_4, Q9C0E4
# Chain of GRIP2_4, Q9C0E4 (Q9C0E4 446-548): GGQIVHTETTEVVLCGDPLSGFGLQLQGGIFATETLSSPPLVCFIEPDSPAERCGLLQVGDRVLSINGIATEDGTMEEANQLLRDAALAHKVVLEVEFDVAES
# [23] = target: IL16_1, Q14005
# Chain of IL16_1, Q14005 (Q14005 210-306): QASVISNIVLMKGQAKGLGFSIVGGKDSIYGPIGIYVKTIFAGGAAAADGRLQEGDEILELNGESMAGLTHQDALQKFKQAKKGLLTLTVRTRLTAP
# [24] = target: ARHGEF12, Q9NZN5-2
# Chain of ARHGEF12, Q9NZN5-2 (Q9NZN5 other isoform, or with tags, fused parts or gaps): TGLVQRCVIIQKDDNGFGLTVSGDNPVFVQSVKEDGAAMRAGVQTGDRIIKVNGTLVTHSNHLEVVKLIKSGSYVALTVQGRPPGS
# [25] = target: MAGI2_5, Q86UL8
# Chain of MAGI2_5, Q86UL8 (Q86UL8 915-1017): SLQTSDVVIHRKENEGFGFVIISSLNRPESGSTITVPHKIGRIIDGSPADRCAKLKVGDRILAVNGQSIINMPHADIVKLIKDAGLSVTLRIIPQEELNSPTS
# [26] = target: CASK, O14936
# Chain of CASK, O14936 (O14936 487-570): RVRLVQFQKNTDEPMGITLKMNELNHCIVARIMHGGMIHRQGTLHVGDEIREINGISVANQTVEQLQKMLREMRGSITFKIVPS
# [27] = target: Inadl_9, Q8NI35
# Chain of Inadl_9, Q8NI35 (Q8NI35 1530-1615): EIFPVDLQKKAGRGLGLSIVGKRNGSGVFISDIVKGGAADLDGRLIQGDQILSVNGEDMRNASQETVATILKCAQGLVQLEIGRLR
# [28] = plain residues with an end cap or a label only (N-terminal biotin on a linker: ahx)
# [29] = plain residues with an end cap or a label only (N-terminal biotin on a linker: ttds)
binder,measurement,setting,value
"SDSSGQEYSL [KCTD3, Q9Y597]",pKd,[1]; [28],below the threshold
same,pKd,[2]; [28],below the threshold
same,pKd,[3]; [28],below the threshold
same,pKd,[4]; [28],below the threshold
same,pKd,[5]; [28],below the threshold
same,pKd,[6]; [28],below the threshold
same,pKd,[7]; [28],below the threshold
same,pKd,[8]; [28],below the threshold
same,pKd,[9]; [28],below the threshold
same,pKd,[10]; [28],below the threshold
same,pKd,[11]; [28],below the threshold
same,pKd,[12]; [28],below the threshold
same,pKd,[13]; [28],below the threshold
same,pKd,[14]; [28],below the threshold
same,pKd,[15]; [28],below the threshold
same,pKd,[16]; [28],below the threshold
same,pKd,[17]; [28],below the threshold
same,pKd,[18]; [28],below the threshold
same,pKd,[19]; [28],below the threshold
same,pKd,[20]; [28],below the threshold
same,pKd,[21]; [28],below the threshold
same,pKd,[22]; [28],below the threshold
same,pKd,[23]; [28],below the threshold
same,pKd,[24]; [28],below the threshold
same,pKd,[25]; [28],below the threshold
same,pKd,[26]; [28],below the threshold
same,pKd,[27]; [28],below the threshold
"QRQARSETLV [HPV59-E6, Q81964]",pKd,[1]; [29],below the threshold
same,pKd,[2]; [29],below the threshold
same,pKd,[3]; [29],4.25
same,pKd,[4]; [29],below the threshold
same,pKd,[5]; [29],below the threshold
same,pKd,[6]; [29],6.07
same,pKd,[7]; [29],3.95
same,pKd,[8]; [29],below the threshold
same,pKd,[9]; [29],below the threshold
same,pKd,[10]; [29],below the threshold
same,pKd,[11]; [29],below the threshold
same,pKd,[12]; [29],below the threshold
same,pKd,[13]; [29],below the threshold
same,pKd,[14]; [29],below the threshold
same,pKd,[15]; [29],below the threshold
same,pKd,[16]; [29],below the threshold
same,pKd,[17]; [29],below the threshold
same,pKd,[18]; [29],below the threshold
same,pKd,[19]; [29],below the threshold
same,pKd,[20]; [29],4.47
same,pKd,[21]; [29],3.64
same,pKd,[22]; [29],below the threshold
same,pKd,[23]; [29],below the threshold
same,pKd,[24]; [29],below the threshold
same,pKd,[25]; [29],5.02
same,pKd,[26]; [29],below the threshold
same,pKd,[27]; [29],below the threshold

# — PMC9482650, “Quantitative fragmentomics allow affinity mapping of interactomes” (Nature Communications, 2022)
